Results: patent publication EP3766512A1 (Universität Zürich, dated 2021)

Columns and labels:
Experiment in all cases: Protein G affinity chromatography bead
human IL-12Fc NAH = molecular target: T1, human IL-12Fc NAH (human, UniProt P29460 23-328; P29459 23-219)
T1 construct: not shown: linker between p40 and p35 of single chain IL-12 not described; junction or linker between IL-12 and Fc not described

human IL-12Fc NAA = molecular target: T2, human IL-12Fc NAA (human, UniProt P29460 23-328; P29459 23-219)
T2 construct: not shown: linker between p40 and p35 of single chain IL-12 not described; junction or linker between IL-12 and Fc not described
T2 sequence (P29460 other isoform, or with tags, fused parts or gaps): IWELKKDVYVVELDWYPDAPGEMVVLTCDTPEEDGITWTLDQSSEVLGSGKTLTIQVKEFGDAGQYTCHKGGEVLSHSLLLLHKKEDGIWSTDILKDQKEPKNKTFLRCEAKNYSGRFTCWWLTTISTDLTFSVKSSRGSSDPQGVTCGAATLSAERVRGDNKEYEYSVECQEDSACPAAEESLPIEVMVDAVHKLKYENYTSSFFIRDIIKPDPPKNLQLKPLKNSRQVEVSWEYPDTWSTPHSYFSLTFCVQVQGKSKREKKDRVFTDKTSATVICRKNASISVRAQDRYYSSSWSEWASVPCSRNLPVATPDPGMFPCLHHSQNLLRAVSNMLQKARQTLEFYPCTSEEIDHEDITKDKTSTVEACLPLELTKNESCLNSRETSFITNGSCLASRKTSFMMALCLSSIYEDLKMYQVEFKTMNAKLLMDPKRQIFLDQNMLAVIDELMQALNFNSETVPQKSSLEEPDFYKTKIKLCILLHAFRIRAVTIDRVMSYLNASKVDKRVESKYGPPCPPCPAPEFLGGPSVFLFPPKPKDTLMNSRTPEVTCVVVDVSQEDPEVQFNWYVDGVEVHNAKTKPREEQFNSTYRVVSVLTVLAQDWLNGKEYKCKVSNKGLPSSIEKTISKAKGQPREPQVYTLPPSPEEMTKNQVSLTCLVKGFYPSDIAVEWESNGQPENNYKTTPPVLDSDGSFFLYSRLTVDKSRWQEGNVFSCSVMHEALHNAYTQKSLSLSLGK

human IL-12Fc NAE = molecular target: T3, human IL-12Fc NAE (human, UniProt P29460 23-328; P29459 23-219)
T3 construct: not shown: linker between p40 and p35 of single chain IL-12 not described; junction or linker between IL-12 and Fc not described
T3 sequence (P29460 other isoform, or with tags, fused parts or gaps): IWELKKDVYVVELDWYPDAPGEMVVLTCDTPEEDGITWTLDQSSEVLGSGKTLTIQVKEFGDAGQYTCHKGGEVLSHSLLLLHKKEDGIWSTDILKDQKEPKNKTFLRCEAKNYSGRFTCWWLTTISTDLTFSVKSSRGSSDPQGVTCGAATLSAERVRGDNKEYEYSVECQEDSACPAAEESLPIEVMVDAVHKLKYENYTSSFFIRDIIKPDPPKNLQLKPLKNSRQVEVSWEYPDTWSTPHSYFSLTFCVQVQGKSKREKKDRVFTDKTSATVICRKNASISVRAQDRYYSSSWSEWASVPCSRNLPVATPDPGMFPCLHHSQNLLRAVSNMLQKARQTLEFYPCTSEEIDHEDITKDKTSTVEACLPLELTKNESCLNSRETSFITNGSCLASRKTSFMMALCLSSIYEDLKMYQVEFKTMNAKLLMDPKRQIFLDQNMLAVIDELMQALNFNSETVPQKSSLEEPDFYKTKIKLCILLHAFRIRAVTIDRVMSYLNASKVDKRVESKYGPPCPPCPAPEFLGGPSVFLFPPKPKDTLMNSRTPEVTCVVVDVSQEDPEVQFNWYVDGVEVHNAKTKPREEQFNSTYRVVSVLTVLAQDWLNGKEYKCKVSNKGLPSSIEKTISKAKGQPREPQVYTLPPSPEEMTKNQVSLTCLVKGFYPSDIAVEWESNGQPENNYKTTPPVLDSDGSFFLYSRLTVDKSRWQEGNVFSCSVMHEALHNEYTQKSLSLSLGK

T1 sequence (P29460 other isoform, or with tags, fused parts or gaps): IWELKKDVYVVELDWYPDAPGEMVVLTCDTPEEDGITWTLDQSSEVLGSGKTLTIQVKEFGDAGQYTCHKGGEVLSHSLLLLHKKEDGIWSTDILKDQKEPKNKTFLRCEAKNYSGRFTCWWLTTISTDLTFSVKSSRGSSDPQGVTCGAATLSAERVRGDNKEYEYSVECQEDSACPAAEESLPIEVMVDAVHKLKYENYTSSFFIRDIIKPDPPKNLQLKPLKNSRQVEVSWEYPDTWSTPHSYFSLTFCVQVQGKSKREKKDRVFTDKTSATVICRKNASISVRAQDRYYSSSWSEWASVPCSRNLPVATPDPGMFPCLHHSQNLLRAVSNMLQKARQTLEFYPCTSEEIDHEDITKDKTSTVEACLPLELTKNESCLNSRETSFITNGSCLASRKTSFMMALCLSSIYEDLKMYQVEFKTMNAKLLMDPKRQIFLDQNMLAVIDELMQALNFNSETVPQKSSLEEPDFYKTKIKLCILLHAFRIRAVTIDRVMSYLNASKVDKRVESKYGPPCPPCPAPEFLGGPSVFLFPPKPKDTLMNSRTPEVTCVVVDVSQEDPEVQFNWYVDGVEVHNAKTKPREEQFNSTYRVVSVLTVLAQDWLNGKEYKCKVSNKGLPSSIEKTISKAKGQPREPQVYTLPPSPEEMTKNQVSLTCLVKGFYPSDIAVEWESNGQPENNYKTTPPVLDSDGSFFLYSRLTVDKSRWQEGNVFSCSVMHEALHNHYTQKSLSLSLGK

binding result (human IL-12Fc NAH): no binding | binding result (human IL-12Fc NAA): no binding | binding result (human IL-12Fc NAE): no binding
B1: Protein G (chromatography bead) (other, UniProt P19909 303-497, looked up)
chain: TYKLILNGKTLKGETTTEAVDAATAEKVFKQYANDNGVDGEWTYDDATKTFTVTEKPEVIDASELTPAVTTYKLVINGKTLKGETTTEAVDAATAEKVFKQYANDNGVDGEWTYDDATKTFTVTEKPEVIDASELTPAVTTYKLVINGKTLKGETTTKAVDAETAEKAFKQYANDNGVDGVWTYDDATKTFTVTE
